Target: the molecule itself
Experiment: SEC; MK-Ctd and its loop variants; Superdex 75 10/300 GL; 20 mM Tris-HCl, 500 mM GdnHCl, pH 8; monomer to dimer

| Protein | stoichiometry N |
| --- | --- |
| L1MK-Ctd (MK-Ctd with QVVAG engineered into loop1) (domain or fragment) MVPSRFEDVRVVQVVAGWRVSVKIAETEEGEVVTVKAEFDECREIGEETGIPPREVKAMVEAAARVGGWVDLKEREIKVQEG | 2 |
| L1MK-Ctd* (L1MK-Ctd with QVVAG mutated to QVNAG) (domain or fragment) MVPSRFEDVRVVQVNAGWRVSVKIAETEEGEVVTVKAEFDECREIGEETGIPPREVKAMVEAAARVGGWVDLKEREIKVQEG | 2 |
